Results from patent US20240116985A1, “STAPLED PEPTIDES AND METHODS THEREOF” (priority 2020, published 2024).
Starred links: 1 amine or outer side, 2 acyl side, 3 side chain; linkers in the order of their positions; H or OH if unused. Positions of bridges follow the written chain, without caps; N, C: chain ends. Non-standard residues stand in square brackets, D forms with d. Primed or numbered codes have the meaning given here. PyrS2″ = (S)-3-amino-1-((pent-4-en-1-yloxy)carbonyl)pyrrolidine-3-carboxylic acid (stapling residue), C=CCCCOC(=O)N1CC[C@@](N[*:1])(C(=O)[*:2])C1; B5(4) = 2,2-bis(4-pentenyl)glycine = 2-amino-2-(pent-4-en-1-yl)hept-6-enoic acid (stitching residue), C=CCCCC(CCCC=C)(N[*:1])C(=O)[*:2]; B5(21) = 2-amino-2-(pent-4-en-1-yl)hept-6-enoic acid, bis(4-pentenyl)glycine (stitching residue), C=CCCCC(CCCC=C)(N[*:1])C(=O)[*:2]; Phe(2-Cl) = N[C@@H](Cc1ccccc1Cl)C(=O)O; Bta = N[C@@H](Cc1csc2ccccc12)C(=O)O; αAllylPro = C=CC[C@@]1(C(=O)O)CCCN1; tBuAla = CC(C)(C)C[C@H](N)C(=O)O; 3Thi = N[C@@H](Cc1ccsc1)C(=O)O; Cha = N[C@@H](CC1CCCCC1)C(=O)O; Aib = CC(C)(N)C(=O)O

Key:
[1] = molecular target: full-length beta-Catenin (Uniprot ID P35222) (Homo sapiens (Human)) (UniProt P35222); test: fluorescence polarization competition; full-length beta-catenin; competitor 5FAM-TCF4(10-53) probe
Target sequence in this assay (P35222 whole entry, one chain of several): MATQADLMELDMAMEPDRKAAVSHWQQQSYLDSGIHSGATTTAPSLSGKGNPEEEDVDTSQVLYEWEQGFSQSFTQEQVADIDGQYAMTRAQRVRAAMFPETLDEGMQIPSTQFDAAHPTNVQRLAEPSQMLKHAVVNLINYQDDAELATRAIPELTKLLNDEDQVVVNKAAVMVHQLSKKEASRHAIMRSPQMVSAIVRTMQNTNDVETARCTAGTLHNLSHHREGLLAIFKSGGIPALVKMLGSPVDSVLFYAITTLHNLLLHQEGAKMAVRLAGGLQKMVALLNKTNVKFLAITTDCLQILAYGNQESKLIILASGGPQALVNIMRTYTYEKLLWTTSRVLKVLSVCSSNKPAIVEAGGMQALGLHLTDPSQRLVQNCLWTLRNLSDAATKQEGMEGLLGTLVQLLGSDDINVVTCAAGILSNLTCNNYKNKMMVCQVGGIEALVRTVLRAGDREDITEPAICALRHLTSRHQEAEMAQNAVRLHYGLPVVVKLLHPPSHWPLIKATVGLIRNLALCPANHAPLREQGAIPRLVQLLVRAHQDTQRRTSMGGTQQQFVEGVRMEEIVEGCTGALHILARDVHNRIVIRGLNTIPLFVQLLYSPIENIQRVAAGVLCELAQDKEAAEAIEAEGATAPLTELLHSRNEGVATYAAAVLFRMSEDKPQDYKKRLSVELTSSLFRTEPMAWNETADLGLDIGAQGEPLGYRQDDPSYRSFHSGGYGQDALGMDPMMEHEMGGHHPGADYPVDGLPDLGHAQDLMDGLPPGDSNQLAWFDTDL

[2] = molecular target: full-length beta-Catenin (Uniprot ID P35222) (Homo sapiens (Human)) (UniProt P35222); test: fluorescence polarization competition; full-length beta-catenin, competitor 5FAM-TCF4(10-53) probe
[3] = molecular target: beta-catenin (Homo sapiens (Human)) (UniProt P35222); test: fluorescence polarization competition; full-length beta-catenin with 5FAM-TCF4(10-53) probe as competitor
beta-catenin (Homo sapiens (Human)), sequence (P35222 whole entry): as the sequence (P35222 whole entry, one chain of several) above

| Binder | EC50 [1] [nM] | IC50 [2] [nM] | EC50 [3] [nM] |
| --- | --- | --- | --- |
| Ac-[αAllylPro]D[tBuAla][B5(21)]DD[Aib][Aib]FL[PyrS2″][3Thi][Bta]Q-NH2 (staple 1-4, 4-11; also: earlier eluting HPLC peak (staple isomer composition)) [I-1179] | 346 | 346 |  |
| Ac-[αAllylPro]D[Cha][B5(21)]DTAAFL[PyrS2″][Phe(2-Cl)][Bta]Q-NH2 (staple 1-4, 4-11) [I-1176] | 169 | 169 |  |
| Ac-[αAllylPro]D[Cha][B5(4)]DTAAFL[PyrS2″][3Thi][Bta]Q-NH2 (staple 1-4, 4-11) [I-1174] | 43 | 43 |  |
| Ac-[αAllylPro]D[tBuAla][B5(4)]DFAAFL[PyrS2″][3Thi][Bta]Q-NH2 (staple 1-4, 4-11) [I-1441] |  | 327 | 327 |
| Ac-[αAllylPro]D[tBuAla][B5(4)]DDA[Aib]FL[PyrS2″][3Thi][Bta]Q-NH2 (staple 1-4, 4-11) [I-1178] | 54.5 | 54.5 |  |
| Ac-[αAllylPro]D[tBuAla][B5(4)]DTAAFL[PyrS2″][3Thi][Bta]Q-NH2 (staple 1-4, 4-11) [I-1167] | 34 | 34 |  |
| Ac-[αAllylPro]D[tBuAla][B5(4)]DTAAFL[PyrS2″][Phe(2-Cl)][Bta]S-NH2 (staple 1-4, 4-11) [I-1172] | 45 | 45 |  |
| Ac-[αAllylPro]D[tBuAla][B5(4)]DTAAFL[PyrS2″][3Thi][Bta]S-NH2 (staple 1-4, 4-11) [I-1171] | 70 | 70 |  |
| Ac-[αAllylPro]D[tBuAla][B5(21)]DTAAFL[PyrS2″][Phe(2-Cl)][Bta]Q-NH2 (staple 1-4, 4-11) [I-1169] | 159 | 159 |  |

These reach a lower IC50 [2]. Values come first.

| EC50 [1] [nM] | IC50 [2] [nM] | EC50 [3] [nM] | Binder |
| --- | --- | --- | --- |
| 25 | 25 |  | Ac-[αAllylPro]D[tBuAla][B5(4)]DTAAFT[PyrS2″][Phe(2-Cl)][Bta]Q-NH2 (staple 1-4, 4-11) [I-1168] |
| 24 | 24 |  | Ac-[αAllylPro]D[Cha][B5(4)]DTAAFT[PyrS2″][Phe(2-Cl)][Bta]Q-NH2 (staple 1-4, 4-11) [I-1175] |
| 12 | 12 |  | Ac-[αAllylPro]D[Cha][B5(4)]DTAAFT[PyrS2″][3Thi][Bta]Q-NH2 (staple 1-4, 4-11) [I-1173] |
| 25 | 25 |  | Ac-[αAllylPro]D[tBuAla][B5(4)]DD[Aib]AFL[PyrS2″][3Thi][Bta]Q-NH2 (staple 1-4, 4-11) [I-1177] |
| 15 | 15 |  | Ac-[αAllylPro]D[tBuAla][B5(4)]DTAAFT[PyrS2″][3Thi][Bta]S-NH2 (staple 1-4, 4-11) [I-1170] |
| 14 | 14 |  | Ac-[αAllylPro]D[tBuAla][B5(4)]DTAAFT[PyrS2″][3Thi][Bta]Q-NH2 (staple 1-4, 4-11) [I-1166] |
